Assay results taken from article PMC11482615, “Novel Peptides LFLLP and DFFL from Jack Bean Protein Hydrolysates Suppress the Inflammatory Response in Lipopolysaccharide-Stimulated RAW 264.7 Cells” (Foods, 2024).
Residues, ends and D or L forms follow the SMILES beside them. *: point of attachment. FITC = O=C1OC2(c3ccc(O)cc3Oc3cc(O)ccc32)c2ccc(NC(=S)*)cc21

Test system: RAW 264.7 cells
Experiment: Visualization of FITC-conjugated peptides in RAW 264.7 cells (fluorescence microscopy)
Type: cell-based, mouse
Conditions: 200 μmol/L FITC-conjugated peptide, 24 h; for incorporation into RAW 264.7 cells (fluorescence signal): intensity of the two peptides roughly comparable; for cellular localization in RAW 264.7 cells: non-colocalization with DAPI
Method: To visualize the cellular localization of peptides, LFLLP and DFFL were conjugated with fluorescein isothiocyanate isomer-I (FITC-I, Dojindo). Briefly, the LFLLP and DFFL were mixed with FITC-I in a carbonate buffer at pH 9.5 for 2 h. To purify the FITC-conjugated peptides, the mixture was applied to a Sep-Pak C18 cartridge. RAW 264.7 cells were seeded in a 6-well plate (0.5 × 10^4 cells/cm^2). After 3 days, the cells were incubated with FITC-conjugated peptides (LFLLP and DFFL, 200 µmol/L) for 24 h. The cells were then washed with cold PBS and fixed with 4% PFA for 10 min. Lastly, the cells were washed three times with PBS and mounted on microscope slides using a mounting fluid containing DAPI, and the fluorescence signals were visualized using a Leica DMI6000 B fluorescence microscope (Leica).

CC(C)C[C@H](NC(=O)[C@H](Cc1ccccc1)NC(=O)[C@H](Cc1ccccc1)NC(=O)[C@H](CC(=O)O)NC(=S)Nc1ccc2c(c1)C(=O)OC21c2ccc(O)cc2Oc2cc(O)ccc21)C(=O)O [FITC-conjugated DFFL] ({FITC}-DFFL-OH) was tested, and the “incorporation into RAW 264.7 cells (fluorescence signal)” value was “observed in most cells” and the “cellular localization in RAW 264.7 cells” value was “predominantly localized in the cytosols”.

CC(C)C[C@H](NC(=O)[C@H](Cc1ccccc1)NC(=O)[C@H](CC(C)C)NC(=S)Nc1ccc2c(c1)C(=O)OC21c2ccc(O)cc2Oc2cc(O)ccc21)C(=O)N[C@@H](CC(C)C)C(=O)N1CCC[C@H]1C(=O)O [FITC-conjugated LFLLP] ({FITC}-LFLLP-OH) was tested, and the “incorporation into RAW 264.7 cells (fluorescence signal)” value was “observed in most cells” and the “cellular localization in RAW 264.7 cells” value was “predominantly localized in the cytosols”.
